Target: His6-Phox2a (1-149) (Mus musculus, UniProt Q62066 Q62066:1-149)
Experiment: footprint; DNase I footprint
Conditions: tags: N-terminal His6, pET15b, E. coli BL21(DE3); label: 32P

Sequence of His6-Phox2a (1-149) (Q62066 1-149, one chain of several): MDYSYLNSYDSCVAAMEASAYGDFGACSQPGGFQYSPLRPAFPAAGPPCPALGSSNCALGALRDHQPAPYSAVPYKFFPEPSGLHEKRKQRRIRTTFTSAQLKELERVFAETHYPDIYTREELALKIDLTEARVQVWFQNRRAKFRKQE

B1: PBS3 (dsDNA)
DNA 1: GAGGGAAAATTGGATTCCCCG
DNA 2: CGGGGAATCCAATTTTCCCTC
B1: binds.

From patent US20040024191, “Multimerized DBH enhancer domains” (published 2004)
